From US20220332808A1, “HUMAN-DERIVED ANTI-HUNTINGTIN (HTT) ANTIBODIES AND USES THEREOF” (published 2022) come the findings set out here.

Where “and” joins values, the source holds several entries; their conditions need not be identical. Equal values may be shown once. Where no end group is shown, it is not given here. Some results are limits rather than exact numbers.

Assay [1] addresses all four species: aggregated HD49, aggregated HD21, soluble GST-HD49 and GST-HD21 Htt Exon 1 proteins. Briefly: direct ELISA, coated at 5 µg/ml. In general terms: An ELISA detects its analyte on a solid surface through an enzyme-linked reagent.
For assay [2], the target named is GST-HttExon1Q49 (human) (UniProt P42858). Kind of assay: direct ELISA, coated at 5 µg/ml.
The target in assay [3] is HD49: huntingtin Exon1 protein with 49 polyQ repeats, GST tag cleaved off, aggregation reaction (human, UniProt P42858). Briefly: direct ELISA, coated at 5 µg/ml. The protocol:
(§1) To determine the half maximal effective concentration (EC₅₀) of recombinant human-derived HTT antibody […] to soluble and aggregated huntingtin Exon1 proteins with 21 or 49 polyQ repeats direct ELISA was performed. In brief, 96 well microplates (Corning) were coated with either GST-HD21, GST-HD49 or aggregated HD21 or HD49 at a concentration of 5 μg/ml in coating buffer (15 mM Na2CO3, 35 mM NaHCO₃, pH 9.42). Nonspecific binding sites were blocked for 1 h at RT with PBS/0.1% Tween®-20 containing 2% BSA (Sigma-Aldrich, Buchs, Switzerland). Primary antibodies were diluted to the indicated concentrations and incubated 1 h at RT. Binding was determined using either a donkey anti-human IgG Fcγ-specific antibody conjugated with HRP or a goat anti-mouse IgG (H+L)-specific antibody conjugated with HRP, followed by measurement of HRP activity in a standard colorimetric assay. Subsequently, EC₅₀ values were estimated by a non-linear regression using GraphPad Prism software (San Diego, USA).
(§2) To determine the half maximal effective concentration (EC₅₀) of recombinant human-derived HTT antibodies NI-302.35C1 and NI-302.72F10 to soluble and aggregated HTT Exon1 proteins with 21 or 49 polyQ repeats direct ELISA and EC50 determination was performed as described in Example 6, supra.
(§3) To determine the half maximal effective concentration (EC₅₀) of recombinant human-derived HTT antibody NI-302.7D8 to soluble and aggregated HTT Exon1 proteins with 21 or 49 polyQ repeats direct ELISA and EC50 determination was performed as described in Example 6, supra.

The target in assay [4] is GST-HttExon1Q49 (human) (UniProt P42858). Kind of assay: direct ELISA.
In another assay the target is GST-HttExon1Q21 (human) (UniProt P42858). Briefly: direct ELISA, coated at 5 µg/ml.
In assay [5] the target is HD21: huntingtin Exon1 protein with 21 polyQ repeats, GST tag cleaved off, aggregation reaction (human, UniProt P42858). Kind of assay: direct ELISA, coated at 5 µg/ml. The protocol: as §1, §2, §3
For assay [6], the target named is T1, BSA-coupled polyP repeat peptide of Htt Exon1 (human, also: coupled to BSA).
T1 peptide: PPPPPPPPPPP
Kind of assay: direct ELISA on BSA-coupled Htt Exon1 peptides. The protocol: (§4) To determine the half maximal effective concentration (EC₅₀) of recombinant human-derived HTT antibody NI-302.33C11 to BSA-coupled peptide fragments of the huntingtin Exon 1 direct ELISA with BSA-coupled Htt Exon1 domain peptides was performed.
(§5) In brief, 96 well microplates (Corning) were coated with BSA-coupled synthetic peptides (Schafer-N, Denmark) of the N-terminal amino acid 1-19 ([…], SEQ ID No.: 93), the P-rich domain sequence ([…], SEQ ID No.: 94), the polyP repeat sequence ([…], SEQ ID No.: 95) or the 14 C-terminal amino acids ([…], SEQ ID No.: 96) or with the full lengths GST-HD49 Exon 1 protein at […] in coating buffer (15 mM Na2CO3, 35 mM NaHCO₃, pH 9.42). Non-specific binding sites were blocked for 1 h at RT with PBS/0.1% Tween®-20 containing 2% BSA (Sigma-Aldrich, Buchs, Switzerland). Primary antibodies were diluted to the indicated concentrations and incubated 1 h at RT. Binding was determined using donkey anti-human IgG Fcγ-specific antibody conjugated with HRP, followed by measurement of HRP activity in a standard colorimetric assay and the EC₅₀ values were estimated by a non-linear regression using GraphPad Prism software (San Diego, USA). […]

For assay [7], the target named is T2, C-terminal peptide of Htt Exon1 coated directly to the plate (not coupled to BSA) (human).
T2 peptide: PPGPAVAEEPLHRP
Kind of assay: direct ELISA, peptide coated directly.

Assay [8] concerns the target T3, BSA-coupled C-terminal peptide of Htt Exon1 (the 14 C-terminal amino acids) (human, also: coupled to BSA).
T3 peptide: PPGPAVAEEPLHRP
Kind of assay: direct ELISA on BSA-coupled Htt Exon1 peptides. The method, then:
as §4, §5

GST-HttExon1Q49 (human), sequence (P42858 1-88, change not shown): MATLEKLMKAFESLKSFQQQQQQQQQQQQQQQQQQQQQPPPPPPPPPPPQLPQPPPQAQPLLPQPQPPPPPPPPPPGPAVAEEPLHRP
GST-HttExon1Q21 (human), sequence (P42858 1-88, change not shown): as above

B1: NI-302.63F3 (antibody, V domains shown)
VH: QVQLVQSGSAFKKPGTSVKVSCKASGYTFETRSMNWVRQAPGQGLEYMGWINTNTGNRTYVQAFRGRFVFSLDTSVSTAYLQISNLKTEDTAVYYCARGAGGGYWFDSWGQGTLVTVSS
VL: DIQMTQSPDSLAVSLGERATINCKSNQSLFYSSNNNNYLAWYQHKSGQPPKLLVYWGSTRESGVPDRFSGSGSGTDFTLTISSLQAEDVAIYYCHQYYHNPYTFGQGTKLEIK
For B1, in assay [1], the EC50 lay within 0.2 to 0.4 nM.

B2: NI-302.7D8 (antibody, V domains shown)
VH: QVQLVQSGSELKKPGASVKVSCKASGYNFNNYAINWLRQAPGQGLEWMGWINTITGHPTYAQGFKGRFVFSLDTSVSTAYLQISSLKPEDTAVYYCARTYSNYGEFDYWGQGTLVTVSS
VL: QSALTQPASVSGSRGQSITISCTGTSSDVGSYNLVSWYQQYPGKAPKLIIHEGSERPSGVSNRFSGSKSGNTASLTISGLQAEDEADYYCCSYAGTTTFVLFGGGTKLTVL
Consider B2, for which the EC50 in the assay with GST-HttExon1Q49 (human) [2] came out at 6 nM; in assay [3] it was 17 nM.

B3: NI-302.33C11 (antibody, V domains shown)
VH: EVQLVESGGGVVQPGNSLRLSCAASGFRFSDFGMHWVRQAPGKGLEWLALIWYDGGYKYYADSVKGRFTISRDNSKNTMFLQMNSLRAEDTAVYYCATHLEYCSRTTCYLGHWGQGTLVTVSS
VL: DIQLTQSPSFLSASVGDTVTFTCRASQGISDYLAWFQQKPGIAPKLLIYAASTLQTGVPSRFSGSGSGTEFTLTIRSLQSEDFGTYYCQQLKTYPYTFGQGTKVEIK
With B3, the half-maximal effective concentration (EC50) is 0.03 nM in the assay with GST-HttExon1Q49 (human) [4]; 0.1 nM in the assay with GST-HttExon1Q21 (human); 0.1 nM in the assay with GST-HttExon1Q49 (human) [2]; around 0.1 nM in assay [5]; around 0.1 nM in [3]; 0.03 nM in assay [6].

B4: NI-302.15F9 (antibody, V domains shown)
VH: EVQLVESGGGLVTPGGSLRLSCEASGFLFKNSSMNWVRQTPGKGLEWVSSIDTSATNYKYYADSVKGRFTISRDDATNSLYLQMNSLRADDTATYYCARGYYTPRDFDYWGQGTLVTVSS
VL: DVVMTQSPQTLSVSLGQAASISCRSSQSLLYRDNNTYLNWFHQRPGQSPRRLIYRASDRDSGVPDRFSGGGSGTDFTLKISGVEAEDVGTYYCMQGTHWPRTFGQGTKVEIK
On to B4, for which, in [1], the EC50 is 5 nM and 35 nM; the fold preference of HD49 vs. HD21 was determined as 5 fold.

B5: NI-302.35C1 (antibody, V domains shown)
VH: EVQLVESGGNLVQPGGSLRLSCTASGFTFSITALSWVRQAPEKGPQWVSAITGNAYGTYYADSVKGRFTISRDNAKNTLYLQMNGLRAEDTAIYYCVKGIASDSSGYSAFWGPGTLVTVSS
VL: EIVLTQSPATLSLSPGERATLSCRASQSVDNQFAWYQQKPGQAPRLLIYDASRRAPGIPDRFSGSGSGTDFTLTISSLEPEDFAIYYCQHRYTWLYTFGQGTRLEIK
In the case of B5, the EC50 with GST-HttExon1Q49 (human) [4] was 3.2 nM; in [3] it was around 2.7 nM; in assay [7] it was above 100 nM; in assay [8] it was around 0.7 nM.

The EC50 is the concentration giving half of the maximal effect. The low end stands for a more potent agent, the high end for a less potent agent.
